# Experimental data reported in patent publication US20240425589A1, “CYTOTOXICITY-INDUCING THERAPEUTIC AGENT FOR USE IN TREATMENT OF CANCER” (CHUGAI SEIYAKU KABUSHIKI KAISHA, priority 2021, published 2024).
# T1: recombinant cyno CD3eg (Macaca fascicularis, UniProt Q95LI5)
# T1 sequence (Q95LI5 22-117 limits assumed): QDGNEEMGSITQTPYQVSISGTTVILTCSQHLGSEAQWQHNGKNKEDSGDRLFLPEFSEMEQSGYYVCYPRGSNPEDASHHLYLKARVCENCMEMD
# T1 sequence (Q95LI7 23-115 partner limits assumed): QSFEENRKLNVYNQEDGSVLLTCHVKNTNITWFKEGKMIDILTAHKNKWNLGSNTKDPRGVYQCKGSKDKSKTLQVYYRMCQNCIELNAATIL
# Assays:
# recombinant cyno CD3eg = molecular target: T1, recombinant cyno CD3eg; assay: Biacore 8K SPR affinity to cyno CD3eg; type: binding, cynomolgus; details: 25 degree C, pH 7.4
# Procedure: (§1) The binding affinity of the anti-CLDN6/Dual-Fab tri-specific antibody against recombinant human and cyno CD3eg (gamma and epsilon subunits of CD3) at pH 7.4 was determined at 25 degree C. using Biacore 8K instrument (GE Healthcare). The binding affinity of the anti-CLDN6/Dual-Fab tri-specific antibody against recombinant human and cyno CD137 at pH 7.4 was determined at 37 degree C. using Biacore 8K instrument (GE Healthcare). Anti-human Fc (GE Healthcare) antibody was immobilized onto all flow cells of a CM4 sensor chip using amine coupling kit (GE Healthcare). Tested antibody and analytes were prepared in ACES pH 7.4 containing 20 mM ACES, 150 mM NaCl, 0.05% Tween 20, 0.005% NaN3. Anti-CLDN6/Dual-Fab tri-specific antibody was captured onto the sensor surface by anti-human Fc. Antibody capture levels were aimed at 300 resonance unit (RU). Recombinant CD3eg and CD137 were injected at both 500 and 2000 nM, followed by dissociation. Sensor surface was regenerated each cycle with 3M MgCl2. […] Binding affinities were determined by processing and fitting the data to 1:1 binding model using Biacore Insight Evaluation software (GE Healthcare).
# MC38/CLDN6 = assay: xCELLigence mechanism assay with KLH/CD137 bispecific antibody; type: cell-based, mouse; details: 1 nM
# Procedure: The mechanism of T-cell dependent growth inhibition mediated by the anti-CLDN6/Dual-Fab tri-specific antibodies was assessed by cell proliferation assay using an xCELLigence RTCA MP instrument (ACEA Biosciences).
# Mouse colon cancer cell line MC38/CLDN6 expressing human CLDN6 was used as target cells. Spleens were collected aseptically from hCD3 transgenic mice and hCD3/hCD137 knock-in mice. The spleen was ground in RPMI-1640 medium containing 10% FBS, passed through a 70-μm cell strainer, and then centrifuged (at 1200 rpm for 10 minutes at room temperature) to isolate spleen cells. The isolated spleen cells were hemolyzed, then T cells alone were isolated using CD3 MicroBeads (Miltenyi Biotec), and used as effector cells.
# The background was measured by adding the culture medium to an E-Plate 96 plate (Roche Diagnostics) at 50 μL/well, and then 5×10^3 target cells were plated at 50 μL/well. After culturing overnight, 1 nM (final concentration) of CS4135 together with the KLH/CD137 bispecific antibody at a concentration selected from 100 nM or 500 nM (final concentration) were added at 25 μL/well, respectively. […] Cell growth was monitored every 10 min using xCELLigence over 48 hours during the incubation of the plates. The rate of cell growth inhibition (CGI: %) was determined from the cell index value according to the following formula: […]
# recombinant human CD3eg = recombinant human CD3eg (Homo sapiens, UniProt P07766+P09693); assay: Biacore 8K SPR affinity to human CD3eg; type: binding; details: 25 degree C, pH 7.4
# Procedure: as §1
# OV-90 = assay: Mouse peritoneal dissemination model; type: in vivo, NOD/ShiJic-scid Jcl mice; details: 5 mg/kg iv
# Procedure: To evaluate the effect of anti-CLDN6/Dual-Fab tri-specific antibody CS4135 (the same antibody as PPU4135 described in Table 9 of Example 6 described above) against peritoneal metastasis of ovary cancer, the drug efficacy was evaluated using a mouse peritoneal dissemination model. Human ovarian cancer cell line OV-90 (ATCC) was used as target cells. OV-90 cells were transplanted intraperitoneally to NOD/ShiJic-scid Jcl mice at 5×10^6 cells/500 μL/animal. Three days after transplantation, human T cells separated from human PBMC and expansively cultured using Dynabeads Human T-Activator CD3/CD28 (Gibco) were administered intravenously at 3×10^7 cells/400 μL. Furthermore, the vehicle (PBS containing 0.05% Tween-20) or a CS4135 antibody solution at 5 mg/kg was administered intravenously.
# After tumor transplantation, the mice were observed every 2 to 7 days, and the conditions of the mice were assessed according to the humane endpoint guideline.
# OVCAR3 = OVCAR3 xenograft in huNOG mice, combination with carboplatin; type: in vivo; details: 56 days after transplantation; CS4135 0.1 mg/kg iv days 38, 45 (sequential: 48, 55), carboplatin 60 mg/kg ip days 38, 45
# Procedure: In this test, NOG (huNOG) mice (described in the aforementioned Example 13) transplanted with ovarian cancer cell line OVCAR3 and human CD34-positive cells were used. The OVCAR3 cell line was transplanted subcutaneously to the right flank of the mice, and the mice were divided into groups 38 days after transplantation. Individuals whose tumor volume reached 119 to 210 mm^3 were divided into groups. Vehicle 1 and CS4135 were administered into the mouse tail vein 38 and 45 days after transplantation. PBS containing 0.05% Tween-20 was used as Vehicle 1. Vehicle 2 and carboplatin (Bristol Myers Squibb Company) were administered intraperitoneally to the mice 38 and 45 days after transplantation. Physiological saline was used as Vehicle 2.
# Tumor volume was measured 38, 42, 45, 48, 52, and 56 days after transplantation, and the average tumor volume was indicated for each group. The tumor volume was calculated by the following equation: […]
# Tumor Growth Inhibition (TGI) was calculated by the following equation: […]
# recombinant human CD3eg, sequence (P07766+P09693 fused): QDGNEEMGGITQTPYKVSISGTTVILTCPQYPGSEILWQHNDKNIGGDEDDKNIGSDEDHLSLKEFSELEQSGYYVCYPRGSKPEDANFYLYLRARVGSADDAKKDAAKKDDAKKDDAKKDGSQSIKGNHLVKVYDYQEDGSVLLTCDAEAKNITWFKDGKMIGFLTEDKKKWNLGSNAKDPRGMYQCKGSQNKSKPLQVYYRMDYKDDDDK
molecule,measurement,setting,value
"PPU4135: anti-CLDN6/Dual-Fab tri-specific antibody, chains SEQ ID NOs 42, 51, 56, 69; CS4135 same antibody (protein) chain 1: QVQLVESGGGVVQPGGSLRLSCAASGFTFSSYTMSWVRQAPGQGLEWMGTISSGGGRTYYPDSVKGRFTISRDNSKNTLYLQMNSLRDEDTAVYYCARGDYRYDGFAYWGEGTLVTVSSASTKGPSVFPLAPSSKSTSGGTAALGCLVEDYFPEPVTVSWNSGALTSGVHTFPAVLESSGLYSLSSVVTVPSSSLGTQTYICNVNHKPSNTKVDKRVEPKSCDKTHTCPPCPAPEAAGGPSVFLFPPKPKDTLMISRTPEVTCVVVDVSHEDPEVKFNWYVDGVEVHNAKTKPREEQYASTYRVVSVLTVLHQDWLNGKEYKCKVSNKALPAPIEKTISKAKGQPREPQVYTLPPSREEMTKNQVSLTCLVKGFYPSDIAVEWESNGQPENNYKTTPPVLDSDGSFFLYSKLTVDKSRWQQGNVFSCSVMHEALHNHYTQESLSLSP chain 2: DIQMTQSPSSLSASVGDRVTITCRASYNIDSYLAWYQQKPGKAPELLIYYSTLLVDGVPDRFSGSRSGTDFTLTISSLQPEDFATYYCQHYYSIPYTFGQGTKVEIERTVAAPSVFIFPPSDEQLKSGTAKVVCLLNNFYPREAKVQWKVDNALQSGNSKESVTEQDSKDSTYSLSSTLTLSKADYEKHKVYACEVTHQGLSSPVTKSFNRGEC chain 3: QVQLVESGGGLVQPGRSLRLSCAASGFKFSNVWFHWVRQAPGKGLEWVAQIKDYYNAYAAYYAPSVKGRFTISRDDSKNSIYLQMNSLKTEDTAVYYCHYVHYASASTLLPAEGVDAWGQGTTVTVSSASTKGPSVFPLAPSSKSTSGGTAALGCLVKDYFPEPVTVSWNSGALTSGVHTFPAVLKSSGLYSLSSVVTVPSSSLGTQTYICNVNHKPSNTKVDKRVEPKSCDKTHTCPPCPAPEAAGGPSVFLFPPKPKDTLMISRTPEVTCVVVDVSHEDPEVKFNWYVDGVEVHNAKTKPREEQYASTYRVVSVLTVLHQDWLNGKEYKCKVSNKALPAPIEKTISKAKGQPREPQVYTLPPSRKEMTKNQVSLTCLVKGFYPSDIAVEWESNGQPENNYKTTPPVLDSDGSFFLYSKLTVDKSRWQQGNVFSCSVMHEALHNHYTQKSLSLSP chain 4: DIVMTQSPLSLPVTPGEPASISCQPSQEVVHMNRNTYLHWYQQKPGQAPRLLIYKVSNRFPGVPDRFSGSGSGTDFTLKISRVEAEDVGVYYCAQGTSHPFTFGQGTKLEIKRTVAAPSVFIFPPSDEQLKSGTAEVVCLLNNFYPREAKVQWKVDNALQSGNSEESVTEQDSKDSTYSLSSTLTLSKADYEKHKVYACEVTHQGLSSPVTKSFNRGEC",ka,recombinant cyno CD3eg,101000 M⁻¹ s⁻¹
same,kd,recombinant cyno CD3eg,0.0332 s⁻¹
same,cell growth inhibition rate,"MC38/CLDN6; T cells from hCD3/hCD137 knock-in mice vs hCD3 transgenic mice, no KLH/CD137 bispecific antibody",significantly higher
same,cell growth inhibition rate,"MC38/CLDN6; hCD3/hCD137 knock-in T cells, 500 nM KLH/CD137 bispecific antibody added",decreased to the same level as when using hCD3 transgenic mice-derived T cells
same,ka,recombinant human CD3eg,78000 M⁻¹ s⁻¹
same,kd,recombinant human CD3eg,0.0266 s⁻¹
same,50% survival rate found,OV-90,71 days after transplantation
same,mice showing aggravated conditions observed from,OV-90; vehicle from 48 days,57 days after transplantation
same,survival rate,OV-90; 66 days after transplantation,78%
same,survival rate,OV-90; 80 days after transplantation,22%
same,Tumor growth inhibition: TGI,OVCAR3,18%
